The target of assay [1] is LolA from Vibrio cholerae (V. cholerae) (UniProt A5F2G9). In words: ITC. In general terms: Isothermal titration calorimetry measures the heat released or taken up as one component is titrated into another.
The target in assay [2] is LolA from Porphyromonas gingivalis (P. gingivalis). Nature of the assay: ITC.

By Kd is commonly meant a measure of binding affinity in units of concentration.

On to colistin (peptide), for which the Kd turned out to be 91 µM in assay [1] and 33 µM in assay [2].
On to polymyxin B (peptide), for which the Kd in assay [1] turned out to be 56 µM.

The values above are taken from publication PMC11694511.
